The text below walks through data of patent US20230227512A1 (published 2023).

Assay [1] addresses BG505.SOSIP.664.201C-433C HIV-1 Env ectodomain trimer. Briefly: BLI.
For assay [2], the target named is BG505 SOSIP.664 HIV-1 Env ectodomain trimer. Briefly: BLI.
Assay [3] addresses BG505.SOSIP.664.201C-433C HIV-1 Env ectodomain trimer. Briefly: SPR; +sCD4.
The target is the same in assay [4]. The assay is described as follows: SPR. (Surface plasmon resonance follows binding to a sensor surface in real time, without labels.)
In assay [5] the target is BG505 SOSIP.664 HIV-1 Env ectodomain trimer. Briefly: SPR.
Assay [6] addresses T1, BG505 SOSIP.664 trimer+sCD4 complex (human, UniProt P01730 26-208). Briefly: SPR.
Assay [7] concerns the target BG505.SOSIP.664.201C-433C HIV-1 Env ectodomain trimer. The assay is described as follows: SPR. This is another data set of the same source.
For assay [8] the target is unchanged. The assay is described as follows: BLI. The source holds these as a separate data set. In general terms: In BLI a coated tip is dipped into the sample, and binding shifts an interference pattern.
The target in assay [9] is BG505 SOSIP.664 HIV-1 Env ectodomain trimer. Briefly: SPR; 2G12 capture.
For assay [10] the target is unchanged. The assay is described as follows: SPR; CD4 Ig capture.
For assay [11] the target is unchanged. Briefly: SPR; CD4 Ig capture. This is another data set of the same source.
The target in assay [12] is T1, BG505 SOSIP.664 trimer+sCD4 complex. Briefly: SPR; 17b capture.

The Kd is the constant that tells how readily two partners part at equilibrium. Lower therefore signals a tighter complex.

B1: 447-52D antibody (antibody, V domains shown)
VH: EVQLVESGGGLVKPGGSLRLTCVASGFTFSDVWLNWVRQAPGKGLEWVGRIKSRTDGGTTDYAASVKGRFTISRDDSKNTLYLQMNSLKTEDTAVYSCTTDGFIMIRGVSEDYYYYYMDVWGKGTTVTVSS
VL: QSVLTQPPSVSAAPGQKVTISCSGSSSNIGNNYVLWYQQFPGTAPKLLIYGNNKRPSGIPDRFSGSKSGTSATLGITGLQTGDEADYFCATWDSGLSADWVFGGGTKLTVL
As to B1, the Kd was more than 4000 nM in assay [1]; more than 4000 nM in assay [2]; more than 1000 nM in assay [3]; more than 1000 nM in assay [4]; more than 1000 nM in assay [5]; 1.2 nM in assay [6].

B2: VRC01 (antibody, V domains shown)
VH: QVQLVQSGGQMKKPGESMRISCRASGYEFIDCTLNWIRLAPGKRPEWMGWLKPRGGAVNYARPLQGRVTMTRDVYSDTAFLELRSLTVDDTAVYFCTRGKNCDYNWDFEHWGRGTPVIVSS
VL: EIVLTQSPGTLSLSPGETAIISCRTSQYGSLAWYQQRPGQAPRLVIYSGSTRAAGIPDRFSGSRWGPDYNLTISNLESGDFGVYYCQQYEFFGQGTKVQVDI
B2: the Kd in assay [7] stood at 1.43 nM; in [8], 2.81 nM.

B3: PGT145 antibody (antibody, V domains shown)
VH: QVQLVQSGAEVKKPGSSVKVSCKASGNSFSNHDVHWVRQATGQGLEWMGWMSHEGDKTGLAQKFQGRVTITRDSGASTVYMELRGLTADDTAIYYCLTGSKHRLRDYFLYNEYGPNYEEWGDYLATLDVWGHGTAVTVSS
VL: EVVITQSPLFLPVTPGEAASLSCKCSHSLQHSTGANYLAWYLQRPGQTPRLLIHLATHRASGVPDRFSGSGSGTDFTLKISRVESDDVGTYYCMQGLHSPWTFGQGTKVEIK
As for B3, the Kd in assay [1] worked out at 1.68 nM; in [2], 1.8 nM; in assay [4], 7.22 nM; in assay [5], 4.38 nM; in assay [9] it was 22.8 nM.

B4: PGT151 Fab (Fab, V domains shown)
VH: RVQLVESGGGVVQPGKSVRLSCVVSDFPFSKYPMYWVRQAPGKGLEWVAAISGDAWHVVYSNSVQGRFLVSRDNVKNTLYLEMNSLKIEDTAVYRCARMFQESGPPRLDRWSGRNYYYYSGMDVWGQGTTVTVSS
VL: DIVMTQTPLSLSVTPGQPASISCKSSESLRQSNGKTSLYWYRQKPGQSPQLLVFEVSNRFSGVSDRFVGSGSGTDFTLRISRVEAEDVGFYYCMQSKDFPLTFGGGTKVDLKR
In the case of B4, the Kd amounted to 106 nM in assay [10]; 202 nM in assay [1]; 135 nM in [2]; 78.4 nM in [4]; 158 nM in assay [5]; 144 nM in assay [9].

B5: F105 antibody (antibody, V domains shown)
VH: QVQLQESGPGLVKPSETLSLTCTVSGGSISSHYWSWIRQSPGKGLQWIGYIYYSGSTNYSPSLKSRVTISVETAKNQFSLKLTSMTAADTAVYYCARGPVPAVFYGDYRLDPWGQGTLVTVSS
VL: EIVLTQSPGTLSLSAGERATLSCRASQSVSSRYLAWYQQKPGQAPRLLIYGASSRATGIPDRFSGSGSGTDFTLTISRVEPEDFAVYYCQQYDNSVCTFGQGTKLEIK
For the molecule B5, the Kd in [1] was more than 4000 nM; in assay [2], more than 4000 nM; in assay [4], more than 1000 nM; in [5], more than 1000 nM.

B6: 35O22 Fab (Fab, V domains shown)
VH: QGQLVQSGAELKKPGASVKISCKTSGYRFNFYHINWIRQTAGRGPEWMGWISPYSGDKNLAPAFQDRVIMTTDTEVPVTSFTSTGAAYMEIRNLKFDDTGTYFCAKGLLRDGSSTWLPYLWGQGTLLTVSS
VL: QSVLTQSASVSGSLGQSVTISCTGPNSVCCSHKSISWYQWPPGRAPTLIIYEDNERAPGISPRFSGYKSYWSAYLTISDLRPEDETTYYCCSYTHNSGCVFGTGTKVSVL
With B6, the Kd in assay [11] came to 28 nM; in assay [7] it was 3.04 nM; in [12], 27.2 nM; in [8], 27.7 nM.
